Experimental data taken from patent publication US7067474B1, “Agents for treating human illnesses based on β-catenin, and the production and use thereof” (Max-Delbruck-Centrum fur Molekulare Medizin, priority 1998, dated 2006).

Experiments:
Experiment in all cases: yeast 2-hybrid; - means 60-100% of the wild type interaction
[1] = target: T1, human β-catenin (Leu218-Leu781) mutant Trp 383 to alanine, Gal-4 activation domain fusion (human, UniProt P35222 218-781)
T1 sequence: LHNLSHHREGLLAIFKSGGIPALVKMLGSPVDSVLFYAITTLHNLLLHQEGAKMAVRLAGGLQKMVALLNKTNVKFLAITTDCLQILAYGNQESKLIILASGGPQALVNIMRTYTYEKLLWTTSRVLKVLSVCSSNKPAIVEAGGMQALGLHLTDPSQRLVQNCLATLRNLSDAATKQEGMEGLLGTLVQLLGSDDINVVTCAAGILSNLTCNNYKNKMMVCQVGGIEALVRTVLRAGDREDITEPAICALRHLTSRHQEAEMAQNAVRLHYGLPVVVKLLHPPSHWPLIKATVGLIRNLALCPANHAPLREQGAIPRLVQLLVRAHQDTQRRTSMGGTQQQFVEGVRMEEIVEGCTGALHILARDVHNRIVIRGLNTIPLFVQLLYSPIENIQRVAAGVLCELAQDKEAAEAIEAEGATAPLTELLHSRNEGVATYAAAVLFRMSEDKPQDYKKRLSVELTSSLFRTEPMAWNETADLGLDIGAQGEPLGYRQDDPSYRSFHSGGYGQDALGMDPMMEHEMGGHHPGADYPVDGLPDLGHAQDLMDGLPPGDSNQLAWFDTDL
Procedure: (§1) 4. Preparation and testing of mutants of β-catenin modulating the interaction with LEF-1, APC, conductin or E-cadherin The mutagenesis of β-catenin in the armadillo repeats 3–8 was carried out by means of the "mutagenesis kit" of the company Clontech according to the producer's record and the mutants were checked by sequencing (FIG. 5). In all mutants the original amino acid was substituted by alanine. For analyzing the interactions the cDNA of human β-catenin (armadillo repeat 3 up to the C-terminal end of the protein) coding for the amino acids Leu218–Leu7 µl or its mutants was cloned into the fusion vector for the activation domain of Gal-4 (pGAD424, Clontech). The cDNA for the binding domains of the interaction partners was cloned into the Lex-A fusion vector BTM 116. To this end, the cDNA of LEF-1 for the amino acids 1–99, conductin for the amino acids Ala342–ARG465; of human APC for the amino acids His1012–Glu1215 (APC 15 amino acid repeats) and for the amino acids Ser1259Asp 1400 (APC 20 amino acid repeats) and E-cadherin for the amino acids Gin773–Asp884 (cytoplasmatic domain) were amplified with the respective primers PCR. The interaction of the Lex-A hybrids with β-catenin and its mutants was quantified by means of the β-galactosidase reporter activity in the yeast 2-hybrid system (report: "Matchmaker". Clontech) (Tab. 2 and FIG. 6).

[2] = target: T2, human β-catenin (Leu218-Leu781) mutant Lys 394 to alanine, Gal-4 activation domain fusion (human, UniProt P35222 218-781)
T2 sequence: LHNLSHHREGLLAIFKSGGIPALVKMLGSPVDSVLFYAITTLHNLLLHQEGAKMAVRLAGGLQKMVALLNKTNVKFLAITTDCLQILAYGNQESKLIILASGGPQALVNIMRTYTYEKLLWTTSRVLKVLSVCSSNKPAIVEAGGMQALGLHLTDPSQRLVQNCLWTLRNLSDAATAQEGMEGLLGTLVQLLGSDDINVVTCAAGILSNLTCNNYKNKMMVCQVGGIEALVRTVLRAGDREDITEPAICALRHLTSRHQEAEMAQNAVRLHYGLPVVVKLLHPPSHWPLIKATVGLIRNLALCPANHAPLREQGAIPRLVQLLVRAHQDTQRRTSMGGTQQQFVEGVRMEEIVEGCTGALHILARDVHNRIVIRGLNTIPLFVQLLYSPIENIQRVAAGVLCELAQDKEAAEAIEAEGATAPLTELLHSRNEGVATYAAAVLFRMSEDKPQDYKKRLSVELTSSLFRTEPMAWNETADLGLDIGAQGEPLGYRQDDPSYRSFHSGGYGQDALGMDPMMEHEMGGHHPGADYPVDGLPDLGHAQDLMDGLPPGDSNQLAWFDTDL
Procedure: as §1

[3] = target: T3, human β-catenin (Leu218-Leu781) mutant Arg 457 to alanine, Gal-4 activation domain fusion (human, UniProt P35222 218-781)
T3 sequence: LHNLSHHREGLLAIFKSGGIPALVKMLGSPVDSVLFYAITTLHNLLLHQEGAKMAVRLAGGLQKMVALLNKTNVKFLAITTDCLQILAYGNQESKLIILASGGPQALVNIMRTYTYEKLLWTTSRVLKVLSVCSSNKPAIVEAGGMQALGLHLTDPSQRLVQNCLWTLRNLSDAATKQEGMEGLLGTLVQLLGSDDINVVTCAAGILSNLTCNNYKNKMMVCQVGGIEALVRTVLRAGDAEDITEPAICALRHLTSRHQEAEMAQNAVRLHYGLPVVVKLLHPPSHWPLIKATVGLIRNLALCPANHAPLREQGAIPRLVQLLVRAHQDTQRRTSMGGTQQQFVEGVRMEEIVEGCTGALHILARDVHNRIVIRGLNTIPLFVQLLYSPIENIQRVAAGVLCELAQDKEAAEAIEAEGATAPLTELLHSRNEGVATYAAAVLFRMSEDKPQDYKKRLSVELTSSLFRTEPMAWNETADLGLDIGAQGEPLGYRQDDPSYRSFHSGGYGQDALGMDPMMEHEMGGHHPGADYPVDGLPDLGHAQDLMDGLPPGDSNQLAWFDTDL
Procedure: as §1

Measured: binding result

B1: LEF-1 amino acids 1-99 fused to Lex-A (vector BTM 116) (other, UniProt P0A7C2 1-202, looked up)
chain: MKALTARQQEVFDLIRDHISQTGMPPTRAEIAQRLGFRSPNAAEEHLKALARKGVIEIVSGASRGIRLLQEEEEGLPLVGRVAAGEPLLAQQHIEGHYQVDPSLFKPNADFLLRVSGMSMKDIGIMDGDLLAVHKTQDVRNGQVVVARIDDEVTVKRLKKQGNKVELLPENSEFKPIVVDLRQQSFTIEGLAVGVIRNGDWLMPQLSGGGGGGDPELCATDEMIPFKDEGDPQKEKIFAEISHPEEEGDLADIKSSLVNESEIIPASNGHEVVRQAPSSQEPYHDKAREHPDEGKHPDGGL
notes: Order of the fusion follows the vector; also called LEF-1/TCF-4
binds: [1] | [2] | [3]
